Assay results reported in patent US20240199761A1 (AstraZeneca / MedImmune, published 2024).
Like-named read-outs stand apart in the source and are kept apart here.

Experiments:
recombinant human PAD2 = recombinant human PAD2 (human, UniProt Q9Y2J8 1-665); assay: cell-based or functional assay
huFcRn = biological target: T1, huFcRn (human, UniProt P55899 24-297; P61769 21-119, limits assumed); assay: huFcRn affinity chromatography, pH gradient elution
T1 construct: also called human neonatal Fc receptor

[1] = biological target: T2, cynomolgus PAD2 haplotype N55D, N82S (37.5%) (cynomolgus, UniProt G7NUR0 1-665); assay: SPR; antibody captured on C1-Protein G', PAD2 flowed over
T2 chain: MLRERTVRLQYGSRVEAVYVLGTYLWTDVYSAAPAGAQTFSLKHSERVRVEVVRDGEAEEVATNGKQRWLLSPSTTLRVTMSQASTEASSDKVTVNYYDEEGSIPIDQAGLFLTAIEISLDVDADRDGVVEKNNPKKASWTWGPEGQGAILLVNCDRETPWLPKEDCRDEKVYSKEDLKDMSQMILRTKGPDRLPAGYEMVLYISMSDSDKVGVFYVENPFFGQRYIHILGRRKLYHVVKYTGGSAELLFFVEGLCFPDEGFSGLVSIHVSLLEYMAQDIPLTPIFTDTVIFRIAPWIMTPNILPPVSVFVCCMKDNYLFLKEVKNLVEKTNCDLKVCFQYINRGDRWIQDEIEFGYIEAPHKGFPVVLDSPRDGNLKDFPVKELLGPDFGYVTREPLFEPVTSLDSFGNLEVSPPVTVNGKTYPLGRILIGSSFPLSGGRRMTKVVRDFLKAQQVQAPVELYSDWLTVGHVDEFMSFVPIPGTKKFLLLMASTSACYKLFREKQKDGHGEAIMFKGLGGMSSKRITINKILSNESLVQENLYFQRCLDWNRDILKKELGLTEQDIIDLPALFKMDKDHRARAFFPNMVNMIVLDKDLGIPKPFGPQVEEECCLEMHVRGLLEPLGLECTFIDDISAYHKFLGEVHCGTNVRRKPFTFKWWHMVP

[2] = biological target: T3, cynomolgus PAD2 haplotype N55D, T63A, N82S (9.4%) (cynomolgus, UniProt G7NUR0 1-665); assay: as above
T3 chain: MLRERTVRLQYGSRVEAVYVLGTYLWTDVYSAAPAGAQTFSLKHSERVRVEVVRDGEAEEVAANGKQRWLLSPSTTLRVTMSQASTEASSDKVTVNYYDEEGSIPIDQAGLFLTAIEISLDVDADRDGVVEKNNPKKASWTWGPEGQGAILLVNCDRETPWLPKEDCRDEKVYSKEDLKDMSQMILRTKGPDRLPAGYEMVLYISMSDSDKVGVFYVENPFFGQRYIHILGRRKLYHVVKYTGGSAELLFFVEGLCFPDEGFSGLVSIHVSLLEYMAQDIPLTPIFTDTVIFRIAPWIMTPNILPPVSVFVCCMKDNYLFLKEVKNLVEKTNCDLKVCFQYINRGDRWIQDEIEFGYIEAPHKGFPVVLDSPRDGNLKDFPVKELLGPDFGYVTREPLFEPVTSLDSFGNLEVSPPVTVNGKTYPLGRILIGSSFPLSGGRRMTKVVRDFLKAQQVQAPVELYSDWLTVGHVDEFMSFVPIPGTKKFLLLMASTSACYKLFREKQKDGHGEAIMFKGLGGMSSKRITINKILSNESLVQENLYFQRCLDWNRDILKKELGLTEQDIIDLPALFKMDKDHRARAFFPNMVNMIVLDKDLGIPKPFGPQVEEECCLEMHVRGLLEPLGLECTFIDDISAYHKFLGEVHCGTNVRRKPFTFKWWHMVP

recombinant mouse PAD2 = biological target: T4, recombinant mouse PAD2 (mouse, UniProt Q08642 1-673); assay: ratio of SPR KDs, mouse PAD2 against human PAD2; antibody captured on C1-Protein G', PAD flowed over
T4 construct: Recombinant and tagged

Human PAD1 = biological target: T5, Human PAD1 (Homo sapiens, UniProt Q9ULC6); assay: specificity ELISA: biotinylated PAD on a streptavidin plate, detection with anti-human IgG Fc HRP, Binding (RFU); antibody concentration not given
T5 construct: biotinylated, captured on a streptavidin plate; also called biotinylated PAD1
T5 sequence (single chain, looked up): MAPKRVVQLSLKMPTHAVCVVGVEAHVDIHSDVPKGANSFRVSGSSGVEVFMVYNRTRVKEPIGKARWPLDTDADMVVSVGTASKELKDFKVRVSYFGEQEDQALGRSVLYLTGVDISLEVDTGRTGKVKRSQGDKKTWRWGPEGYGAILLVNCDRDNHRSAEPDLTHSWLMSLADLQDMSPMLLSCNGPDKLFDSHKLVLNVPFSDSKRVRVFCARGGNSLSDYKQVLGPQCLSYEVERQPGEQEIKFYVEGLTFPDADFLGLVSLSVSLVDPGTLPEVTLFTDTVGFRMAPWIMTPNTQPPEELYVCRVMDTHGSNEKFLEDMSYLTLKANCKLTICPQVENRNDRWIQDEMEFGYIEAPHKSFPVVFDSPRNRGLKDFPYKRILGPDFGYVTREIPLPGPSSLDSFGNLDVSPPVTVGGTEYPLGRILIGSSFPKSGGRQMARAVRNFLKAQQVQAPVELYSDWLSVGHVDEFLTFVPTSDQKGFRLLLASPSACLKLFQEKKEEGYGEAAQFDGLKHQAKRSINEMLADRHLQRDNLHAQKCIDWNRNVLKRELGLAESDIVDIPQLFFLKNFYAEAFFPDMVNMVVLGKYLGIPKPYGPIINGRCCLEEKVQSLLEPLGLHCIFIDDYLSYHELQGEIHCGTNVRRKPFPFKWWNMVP

Human PAD3 = biological target: T6, Human PAD3 (Homo sapiens, UniProt Q9ULW8); assay: as above
T6 construct: biotinylated, captured on a streptavidin plate; also called biotinylated PAD3
T6 sequence (single chain, looked up): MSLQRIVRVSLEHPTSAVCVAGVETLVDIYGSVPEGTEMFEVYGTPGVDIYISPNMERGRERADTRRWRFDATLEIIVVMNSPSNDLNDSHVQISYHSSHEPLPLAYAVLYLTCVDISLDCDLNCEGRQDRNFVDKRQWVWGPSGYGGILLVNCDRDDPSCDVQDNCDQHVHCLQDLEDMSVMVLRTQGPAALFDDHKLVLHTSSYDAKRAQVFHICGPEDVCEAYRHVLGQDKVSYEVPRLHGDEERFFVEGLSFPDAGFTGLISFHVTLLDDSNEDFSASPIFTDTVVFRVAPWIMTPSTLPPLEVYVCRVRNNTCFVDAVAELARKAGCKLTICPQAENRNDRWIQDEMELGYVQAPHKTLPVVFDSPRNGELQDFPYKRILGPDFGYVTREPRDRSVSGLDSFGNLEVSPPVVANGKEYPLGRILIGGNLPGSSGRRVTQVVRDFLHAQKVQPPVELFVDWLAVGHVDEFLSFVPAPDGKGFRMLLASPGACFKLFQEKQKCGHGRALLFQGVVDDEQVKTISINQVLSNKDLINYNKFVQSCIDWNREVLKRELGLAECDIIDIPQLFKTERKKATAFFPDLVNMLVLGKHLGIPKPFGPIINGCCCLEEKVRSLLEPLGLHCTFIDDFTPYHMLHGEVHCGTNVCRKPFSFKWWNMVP

[3] = biological target: T7, human PAD2, recombinant, tags at the N-terminus (human, UniProt Q9Y2J8 1-665, enzymatically biotinylated on an Avi-tag where captured on streptavidin); assay: SPR; antibody on C1-Protein G', PAD2 flowed over
T7 construct: not shown: N-terminal tags incl; Avi-tag

[4] = biological target: T8, cynomolgus PAD2, recombinant, tags at the N-terminus (cynomolgus, UniProt G7NUR0 1-665, enzymatically biotinylated on an Avi-tag where captured on streptavidin); assay: SPR; antibody on C1-Protein G', PAD2 flowed over
T8 construct: also called Cyno PAD2; not shown: N-terminal tags incl; Avi-tag

[5] = biological target: T9, mouse PAD2, recombinant, tags at the N-terminus (mouse, UniProt Q08642 1-673, enzymatically biotinylated on an Avi-tag where captured on streptavidin); assay: SPR; antibody on C1-Protein G', PAD2 flowed over
T9 construct: not shown: N-terminal tags incl; Avi-tag

[6] = biological target: T7, human PAD2, recombinant, tags at the …; assay: SPR; antibody on C1-Protein G', PAD2 flowed over; remark: listed apart in the source
[7] = biological target: T8, cynomolgus PAD2, recombinant, tags at …; assay: SPR; antibody on C1-Protein G', PAD2 flowed over; remark: listed apart in the source
[8] = biological target: T9, mouse PAD2, recombinant, tags at the …; assay: SPR; antibody on C1-Protein G', PAD2 flowed over; remark: listed apart in the source
[9] = biological target: T7, human PAD2, recombinant, tags at the …; assay: SPR; biotinylated antibody on C1-streptavidin, PAD2 flowed over
[10] = biological target: T8, cynomolgus PAD2, recombinant, tags at …; assay: as above
[11] = biological target: T7, human PAD2, recombinant, tags at the …; assay: as above; remark: listed apart in the source
[12] = biological target: T8, cynomolgus PAD2, recombinant, tags at …; assay: as above; remark: listed apart in the source

B1: Clone 08 (Bis3, TM; Fab anti-PAD2, scFv anti-PAD4) (bispecific antibody, human IgG1, lambda)
heavy: not shown
light: SYVLTQPPSVSVSPGQTASITCSGDKVGDKYVSWYQQKPGQSPVLVIYQDSQRPSGIPERFSGSNSGNTATLTISGTQAMDEADYYCQTWAPDVLLFGSGTKVTVLGQPKAAPSVTLFPPSSEELQANKATLVCLISDFYPGAVTVAWKADSSPVKAGVETTTPSKQSNNKYAASSYLSLTPEQWKSHRSYSCQVTHEGSTVEKTVAPTECS
notes: Bivalent bispecific IgG-HC-scFv; also called Clone 8*; Clone 8^#
- Potency (IC50), Histone-H3 assay (recombinant human PAD2): 94 pM
- HPLC retention (huFcRn): 17 min
- Relative retention (huFcRn): -0.207
- Kd [1]: 6.4 pM
- koff [1]: 2.65e-05 s⁻¹
- kon [1]: 4.23e+06 M⁻¹ s⁻¹
- Kd [2]: 43.4 pM
- koff [2]: 6.76e-05 s⁻¹
- kon [2]: 1.58e+06 M⁻¹ s⁻¹
- fold difference in KD, mouse/human (recombinant mouse PAD2): 1.1 fold

B2: Clone 12 (Bis3, FQQ-YTE; PAD2 Fab, PAD4 scFv) (bispecific antibody, human IgG1, lambda)
heavy: not shown
light: SYVLTQPPSVSVSPGQTASITCSGDKVGDKYVSWYQQKPGQSPVLVIYQDSQRPSGIPERFSGSNSGNTATLTISGTQAMDEADYYCQTWAPDVLLFGSGTKVTVLGQPKAAPSVTLFPPSSEELQANKATLVCLISDFYPGAVTVAWKADSSPVKAGVETTTPSKQSNNKYAASSYLSLTPEQWKSHRSYSCQVTHEGSTVEKTVAPTECS
notes: also called PAD240012
- binding result (Human PAD1): no binding
- binding result (Human PAD3): no binding

B3: Clone 08, Bis3 anti-PAD2 Fab / anti-PAD4 scFv, Fc TM (bispecific antibody, human IgG1, lambda)
heavy: not shown
light: SYVLTQPPSVSVSPGQTASITCSGDKVGDKYVSWYQQKPGQSPVLVIYQDSQRPSGIPERFSGSNSGNTATLTISGTQAMDEADYYCQTWAPDVLLFGSGTKVTVLGQPKAAPSVTLFPPSSEELQANKATLVCLISDFYPGAVTVAWKADSSPVKAGVETTTPSKQSNNKYAASSYLSLTPEQWKSHRSYSCQVTHEGSTVEKTVAPTECS
notes: Bivalent for PAD2 and for PAD4; In the rows marked ^# the antibody was chemically biotinylated; also called Clone 8*; Clone 8^#
- Kd [3]: 6.65 pM
- koff [3]: 2.97e-05 s⁻¹
- kon [3]: 4.48e+06 M⁻¹ s⁻¹
- Kd [4]: 16.7 pM
- koff [4]: 4.52e-05 s⁻¹
- kon [4]: 2.74e+06 M⁻¹ s⁻¹
- Kd [5]: 7.19 pM
- koff [5]: 3.31e-05 s⁻¹
- kon [5]: 4.65e+06 M⁻¹ s⁻¹
- Kd [6]: 6.65 pM
- Kd [7]: 16.7 pM
- Kd [8]: 7.19 pM
- Kd [9]: 7.51 pM
- koff [9]: 4.74e-05 s⁻¹
- kon [9]: 5.88e+06 M⁻¹ s⁻¹
- Kd [10]: 12.1 pM
- koff [10]: 0.0001 s⁻¹
- kon [10]: 9.48e+06 M⁻¹ s⁻¹
- Kd [11]: 7.51 pM
- Kd [12]: 12.1 pM
